US20150344570A1 (published 2015)

T1: FcγRIIa R (FcγRIIa allotype with Arg at position 131), extracellular domain with C-terminal His tag (human, UniProt P12318 34-217)
T1 construct: extracellular domain; made in FreeStyle293 cells; analyte in the Biacore assay; also called FcγRIIa type R; 2aR
T1 sequence (looked up): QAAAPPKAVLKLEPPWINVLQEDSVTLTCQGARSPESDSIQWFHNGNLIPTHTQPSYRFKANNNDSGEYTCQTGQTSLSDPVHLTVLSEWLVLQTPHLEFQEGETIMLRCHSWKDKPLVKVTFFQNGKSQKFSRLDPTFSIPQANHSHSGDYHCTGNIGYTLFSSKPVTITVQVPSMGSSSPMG

T2: FcγRIIb, extracellular domain with C-terminal His tag (human, UniProt P31994 43-217)
T2 construct: extracellular domain; made in FreeStyle293 cells; analyte in the Biacore assay; also called 2b; FcgRIIb
T2 sequence (looked up): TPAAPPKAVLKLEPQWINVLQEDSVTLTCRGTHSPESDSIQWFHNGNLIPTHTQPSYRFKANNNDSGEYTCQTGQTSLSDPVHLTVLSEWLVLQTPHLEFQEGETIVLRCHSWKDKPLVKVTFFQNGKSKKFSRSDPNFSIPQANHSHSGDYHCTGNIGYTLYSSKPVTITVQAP


Assays:
[1] = target: T1, FcγRIIa R (FcγRIIa allotype with Arg at …); experiment: SPR (Biacore), antibody captured, FcγR analyte; vs GpH7-A5/GpH7-B3/GpL16-k0 = 100
Procedure: (§1) The heterodimerized antibodies He Abs in which one of the H chains was introduced with an alteration were assayed for their binding activities to each activating FcγR and inhibitory FcγR according to the method described in Example 4. […] The activating FcγRs in FIGS. 26, 27, 28, and 29 are FcγRIa, FcγRIIa (R), FcγRIIa (H), and FcγRIIIa, respectively.
(§2) Analysis of interaction between objective antibody and the FcγR was carried out using Biacore T100 (GE Healthcare). HBS-EP+ (GE Healthcare) was used as the running buffer, and the measurement temperature was set to 25° C. Chips produced by immobilizing the antigen peptide by the amine coupling method to a Series S Sencor Chip CM5 (GE Healthcare), or alternatively, chips produced by allowing preliminarily biotinylated antigen peptides to interact with and immobilize onto a Series S Sensor Chip SA (certified) (GE Healthcare) were used. Antibodies of interest were captured onto an antigen peptide-immobilized chip, and allowed to interact to each FcγR diluted with running buffer. To regenerate and repeatedly use the chip, the antibodies captured on the chip were washed off by reacting 10 mM glycine-HCl, pH 1.5.

[2] = target: T2, FcγRIIb, extracellular domain with …; experiment: as above
Procedure: as §1, §2

Binder | He/Con_2aR [1] | He/Con_2b [2]
GpH7-A5/GpH7-B3 variant P331_02A/GpL16-k0 (antibody, human IgG1, kappa, heterodimerized IgG1, mutation in one H chain only; also called He Ab) heavy 1: not shown heavy 2: not shown light: DIVMTQSPLSLPVTPGEPASISCQASESLVHSNRNTYLHWYLQKPGQSPQLLIYKVSNRFSGVPDRFSGSGSGTDFTLKISRVEAEDVGVYYCSQNTHVPPTFGQGTKVEIERTVAAPSVFIFPPSDEQLKSGTASVVCLLNNFYPREAKVQWKVDNALQSGNSQESVTEQDSKDSTYSLSSTLTLSKADYEKHKVYACEVTHQGLSSPVTKSFNRGEC | 106 relative (HeCon Ab = 100) | 99.5 relative (HeCon Ab = 100)
GpH7-A5/GpH7-B3 variant S324_04F/GpL16-k0 (antibody, human IgG1, kappa, heterodimerized IgG1, mutation in one H chain only; also called He Ab) heavy 1: not shown heavy 2: not shown light: DIVMTQSPLSLPVTPGEPASISCQASESLVHSNRNTYLHWYLQKPGQSPQLLIYKVSNRFSGVPDRFSGSGSGTDFTLKISRVEAEDVGVYYCSQNTHVPPTFGQGTKVEIERTVAAPSVFIFPPSDEQLKSGTASVVCLLNNFYPREAKVQWKVDNALQSGNSQESVTEQDSKDSTYSLSSTLTLSKADYEKHKVYACEVTHQGLSSPVTKSFNRGEC | 104 relative (HeCon Ab = 100) | 89.1 relative (HeCon Ab = 100)
GpH7-A5/GpH7-B3 variant P331_09D/GpL16-k0 (antibody, human IgG1, kappa, heterodimerized IgG1, mutation in one H chain only; also called He Ab) heavy 1: not shown heavy 2: not shown light: DIVMTQSPLSLPVTPGEPASISCQASESLVHSNRNTYLHWYLQKPGQSPQLLIYKVSNRFSGVPDRFSGSGSGTDFTLKISRVEAEDVGVYYCSQNTHVPPTFGQGTKVEIERTVAAPSVFIFPPSDEQLKSGTASVVCLLNNFYPREAKVQWKVDNALQSGNSQESVTEQDSKDSTYSLSSTLTLSKADYEKHKVYACEVTHQGLSSPVTKSFNRGEC | 102 relative (HeCon Ab = 100) | 94.3 relative (HeCon Ab = 100)
GpH7-A5/GpH7-B3 variant S337_02A/GpL16-k0 (antibody, human IgG1, kappa, heterodimerized IgG1, mutation in one H chain only; also called He Ab) heavy 1: not shown heavy 2: not shown light: DIVMTQSPLSLPVTPGEPASISCQASESLVHSNRNTYLHWYLQKPGQSPQLLIYKVSNRFSGVPDRFSGSGSGTDFTLKISRVEAEDVGVYYCSQNTHVPPTFGQGTKVEIERTVAAPSVFIFPPSDEQLKSGTASVVCLLNNFYPREAKVQWKVDNALQSGNSQESVTEQDSKDSTYSLSSTLTLSKADYEKHKVYACEVTHQGLSSPVTKSFNRGEC | 105 relative (HeCon Ab = 100) | 97.2 relative (HeCon Ab = 100)
GpH7-A5/GpH7-B3 variant Q295_06M/GpL16-k0 (antibody, human IgG1, kappa, heterodimerized IgG1, mutation in one H chain only; also called He Ab) heavy 1: not shown heavy 2: not shown light: DIVMTQSPLSLPVTPGEPASISCQASESLVHSNRNTYLHWYLQKPGQSPQLLIYKVSNRFSGVPDRFSGSGSGTDFTLKISRVEAEDVGVYYCSQNTHVPPTFGQGTKVEIERTVAAPSVFIFPPSDEQLKSGTASVVCLLNNFYPREAKVQWKVDNALQSGNSQESVTEQDSKDSTYSLSSTLTLSKADYEKHKVYACEVTHQGLSSPVTKSFNRGEC | 102 relative (HeCon Ab = 100) | 90.4 relative (HeCon Ab = 100)

Second part, the binder after the results:

He/Con_2aR [1] | He/Con_2b [2] | Binder
104 relative (HeCon Ab = 100) | 96.7 relative (HeCon Ab = 100) | GpH7-A5/GpH7-B3 variant T335_01G/GpL16-k0 (antibody, human IgG1, kappa, heterodimerized IgG1, mutation in one H chain only; also called He Ab) heavy 1: not shown heavy 2: not shown light: DIVMTQSPLSLPVTPGEPASISCQASESLVHSNRNTYLHWYLQKPGQSPQLLIYKVSNRFSGVPDRFSGSGSGTDFTLKISRVEAEDVGVYYCSQNTHVPPTFGQGTKVEIERTVAAPSVFIFPPSDEQLKSGTASVVCLLNNFYPREAKVQWKVDNALQSGNSQESVTEQDSKDSTYSLSSTLTLSKADYEKHKVYACEVTHQGLSSPVTKSFNRGEC
107 relative (HeCon Ab = 100) | 99.5 relative (HeCon Ab = 100) | GpH7-A5/GpH7-B3 variant S337_12R/GpL16-k0 (antibody, human IgG1, kappa, heterodimerized IgG1, mutation in one H chain only; also called He Ab) heavy 1: not shown heavy 2: not shown light: DIVMTQSPLSLPVTPGEPASISCQASESLVHSNRNTYLHWYLQKPGQSPQLLIYKVSNRFSGVPDRFSGSGSGTDFTLKISRVEAEDVGVYYCSQNTHVPPTFGQGTKVEIERTVAAPSVFIFPPSDEQLKSGTASVVCLLNNFYPREAKVQWKVDNALQSGNSQESVTEQDSKDSTYSLSSTLTLSKADYEKHKVYACEVTHQGLSSPVTKSFNRGEC
105 relative (HeCon Ab = 100) | 97.8 relative (HeCon Ab = 100) | GpH7-A5/GpH7-B3 variant S337_04F/GpL16-k0 (antibody, human IgG1, kappa, heterodimerized IgG1, mutation in one H chain only; also called He Ab) heavy 1: not shown heavy 2: not shown light: DIVMTQSPLSLPVTPGEPASISCQASESLVHSNRNTYLHWYLQKPGQSPQLLIYKVSNRFSGVPDRFSGSGSGTDFTLKISRVEAEDVGVYYCSQNTHVPPTFGQGTKVEIERTVAAPSVFIFPPSDEQLKSGTASVVCLLNNFYPREAKVQWKVDNALQSGNSQESVTEQDSKDSTYSLSSTLTLSKADYEKHKVYACEVTHQGLSSPVTKSFNRGEC
106 relative (HeCon Ab = 100) | 98.9 relative (HeCon Ab = 100) | GpH7-A5/GpH7-B3 variant S337_03V/GpL16-k0 (antibody, human IgG1, kappa, heterodimerized IgG1, mutation in one H chain only; also called He Ab) heavy 1: not shown heavy 2: not shown light: DIVMTQSPLSLPVTPGEPASISCQASESLVHSNRNTYLHWYLQKPGQSPQLLIYKVSNRFSGVPDRFSGSGSGTDFTLKISRVEAEDVGVYYCSQNTHVPPTFGQGTKVEIERTVAAPSVFIFPPSDEQLKSGTASVVCLLNNFYPREAKVQWKVDNALQSGNSQESVTEQDSKDSTYSLSSTLTLSKADYEKHKVYACEVTHQGLSSPVTKSFNRGEC
